The data set “SAXS” deals with the molecule itself. The data set can be described thus: SAXS.
The target of another data set is T1, eIF4G1_(1-249) (S. cerevisiae, UniProt P39935 1-249).
T1 sequence (looked up): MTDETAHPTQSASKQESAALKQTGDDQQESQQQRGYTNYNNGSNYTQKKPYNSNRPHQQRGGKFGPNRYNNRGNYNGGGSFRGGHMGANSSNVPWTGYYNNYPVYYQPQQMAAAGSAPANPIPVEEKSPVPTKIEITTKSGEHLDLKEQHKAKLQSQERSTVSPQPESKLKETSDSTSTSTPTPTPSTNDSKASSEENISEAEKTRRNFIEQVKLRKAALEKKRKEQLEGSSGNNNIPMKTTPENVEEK
The data set is described as follows: NMR intermolecular paramagnetic relaxation enhancement.

The text below walks through data of publication doi:10.1101/2020.08.07.234443 (bioRxiv, 2020).

Substitutions are numbered along the chain they refer to.

For orientation: stoichiometry N means a count of units in the complex or per binding partner.

B1: Pab1 RRM12 (domain or fragment)
chain: not shown
Turning to B1, the “stoichiometry N” value in the data set “SAXS” was 2.

B2: spin-labeled eIF4G1_(1-249) Q109C (domain or fragment, S. cerevisiae, UniProt P39935 1-249, looked up)
chain: T1 sequence (looked up) with Q109C
modifications: 4-(2-iodoacetamido)-TEMPO nitroxyl spin label on C109
For the molecule B2, the binding result with eIF4G1_(1-249) is given as “binds”.
